This experiment addresses T1, T-Alb-VFP (human, UniProt P02768 25-609).
T1 construct: mature;domain: transmembrane domain; also called tethered Alb
As to the kind of experiment: FRET (donor photobleaching), HEK293T cells.

B1: CiHv1-TFP (other)
chain: MEGDNCNKSRHKSHNMINPNYASVRCTQPLPSVIQLRSRNKMIGITEDPSSDSEPVSSNQPLLLTNLSYEVHTFNDNNNHERPAPQEQSTQNTMISMQSEQKSDRFTASNLGMFQYMKFEIGEDGDDHEEEAILTNREKLRHILHSKPIHVAIIVLVVLDSFLVVGELLIDLKVIIVPHGNPAPEILHGFSLSILSIFMVEIALKIIADHRHFIHHKVEVLDAVVVVISFGVDIALIFVGESEALAAIGLLVILRLWRVFRIINGIIVTVKTKADDRVHEIKKKNSELELQIHNLEEKLSQKEQDMSRLHEILRCNNIDIPPTVPLTTSVQIHSTTTASADV
notes: whole, on cells
Turning to B1, the binding result is reported as “no binding”.

The values above are taken from patent US20240254166A1 (University of California, published 2024).
